Results as given in the nanobody polyreactivity screen of Harvey et al. (2022).

assay: yeast display, Sf9 membrane polyspecificity reagent, FACS + sequencing; frameworks hold sequencing errors
How it was run: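 Using colony PCR, genes from sorted yeast display clones were amplified, then sequenced on MiSeq at 2 × 250 and filtered by CDR length. The clones had been stained with 10% biotinylated, detergent-solubilized Sf9 membrane reagent for 1 hour at 4 °C and sorted by FACS into low and high (top ~1%) gates on anti-HA and streptavidin fluorescence. Polyreactivity labels come from the gate of origin.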

Row | Sequence | polyreactivity (PSR sort gate)
1 | QVQLVESGGGIVQAGGSLRLSCAASGRIFGRYAMGWYIQAPGKERELVAAISRSGGSTYYADSVKGRFTISRDNAKYTVYLQMNSLKPEDTAVYYCNAKYVRAGDTYDYWGQGTQVTVSS | high polyreactivity
2 | QVQLVESGGGIVQAGGSLRLSCAASGRIFGTYGMGWYRQAPGKERELVAAISGGGSTNYADSVKGRFTISRDNAKNTVYLQMNSLKPEDTAVYYCAARYPPYRSWYSYDYWGHGTQVTVSS | low polyreactivity
3 | QVQLVESGGGIVQAGGSLRLSCAASGRIFTQYTMGWYRQAPGKERELVAAINYSGGRTNYADSVKGRFTISRDIAKNTVYLQMNSLKPEDTAVYYCAAGYRRATYGYWGQGTQVTVSS | high polyreactivity
4 | QVQLVESGGGIVQAGGSLRLSCAASGRIFVLNAMGWYRQAPGKERELVAAISKSAGSTYYADSVKGRFTISRDNAKNTVYLQMNSLKPEDTAVYYCNVGRRGHYLDAYDYWGQGTQVTVSS | high polyreactivity
5 | QVQLVESGGGIVQAGGSLRLSCAASGRNFTFYAMGWYRQAPGKERELVAAITKSGGSTYYADSVKGRFTISRDNAKNTVYLQMNSLKPEDTAVYYCAAGNHRRPADYGSWGQGTQVTVSS | low polyreactivity
6 | QVQLVESGGGIVQAGGSLRLSCAASGRSFGIYAMGWYRQAPGKERELVAGITRGDRTFAYSVKGRFTISRDNAKNTVYLQMNSLKPEDTAVYYCNADVYPYKLALPAGMGYWGQGTQVTVSS | high polyreactivity
7 | QVQLVESGGGIVQAGGSLRLSCAASGRTFAYYAMGWYRQAPGKERELVAAIDSSGGSTYYADSVKGRFTISRDNAKNTVYLQMYSLKPEDTAVYYCAASYPYDRYDQGGYGYWGQGTQVTVSS | low polyreactivity
8 | QVQLVESGGGIVQAGGSLRLSCAASGRTFNFYAMGWYRQAPGKERELVAAIRKSGASTYYADSVKGRFTISRDNAKNTVYLQMNSLKPEDTAVYYCAADGQVSYALGFDYWGQGTQVTVSS | high polyreactivity
9 | QVQLVESGGGIVQAGGSLRLSCAASGRTFQLYAMGWYRQAPGKERELVAAITRGGSTKYADSVKGRFTISRDNAKNTVYLQMNSLKPEDTAVDYCAAKFSSYWSRFGYWGQGTQVTVSS | high polyreactivity
10 | QVQLVESGGGIVQAGGSLRLSCAASGRTFQPYAMGWYRQAPGKERELVAAITSIGGSTFYADSVKGRFTISRDNAKNTVYLQMNSLKPEDTAVYYCARRGYYRSKWERDYWGQGTQVTVSS | low polyreactivity
11 | QVQLVESGGGIVQAGGSLRLSCAASGRTFSTYAMGWYRQAPGKESELVARITSSGGSTYYADSVKGRFTISRDNAKNTVYFQMNSLKPEDTAVYYCAARPLVRYRMQWTGGYYYWGQGTQVTVSS | high polyreactivity
12 | QVQLVESGGGIVQAGGSLRLSCAASGRTFYDYAMGWYRPAPGKERELVAAISRRAGSTYYADSVKGRFTISRDISKNSVYLQMISLNPEDTAVYFCAAAYSRRWWRGHHYAFDYWGQGTQVTVSS | high polyreactivity
13 | QVQLVESGGGIVQAGGSLRLSCAASGRTLQIYAMGRYRQAPGKERELVAAISSSGGSTYYADSVKGRFTISRDNEKNTVYLQMNSLKPEDTAVYYCAVDGYGYKDDYWGQGTQVTVSS | high polyreactivity
14 | QVQLVESGGGIVQAGGSLRLSCAASGRTLSKNAMGWYRQAPGKERELVATISSVGRTNYADSVKGRFTISRDNAKNTVYLQMNSLKPEDTAVYNCAARRFRGSYYWGQGTQVTVSS | high polyreactivity
15 | QVQLVESGGGIVQAGGSLRLSCAASGSIFDKNAMGWYRQAPGKERELVAAIDSGDTYYADSVKGRFTISRDNAKNTVYLQMNSLKPEDTAVYYCAADDVQYEYDYWGQGPQVTVSS | low polyreactivity
16 | QVQLVESGGGIVQAGGSLRLSCAASGSIFGGNALGWDRQAPGKERELVAAITWSGTSTYYADSVKGRFTISRDNAKNTVYLQMNSLKPEDTAVYYCNADYKSTDFRYSGSRNYWGQGTQVTVSS | low polyreactivity
17 | QVQLVESGGGIVQAGGSLRLSCAASGSIFIDYAMGWYRQAPGKERELVAAISWRGGSTYYADSVKGRFTISRDNAKNTVFLQMIRLKPEDTAVYYCAGARRSKRHEYYLGQGTQVTVSS | high polyreactivity
18 | QVQLVESGGGIVQAGGSLRLSCAASGSIFKRYAMGWYRQAPGKERELVAAISWSGGNTYYADSVKGRFTISRDNAKYTVYLQMNILKPEDTAVYYCNAGYSYFGPGRGRFRYYYWGQGTQVTVSS | high polyreactivity
19 | QVQLVESGGGIVQAGGSLRLSCAASGSIFRRNAMGWYRQSPGKEMEMVASISRGGSTYYADSVKGRFTISRDNAKNTVYLQMNSLKPEDTSVYYCNVVPRWLSWVPTTRRIGDDDYWGQGTQVTVSS | high polyreactivity
20 | QVQLVESGGGIVQAGGSLRLSCAASGSILGYYVMGWYRQAPGIESELVAAISWSSGSTYYADSVKGRFTISRDNAKNTVYLQMNSLIPEDTAVYFCAAPIGDVYVGKGYDSWGQGTQVTVSS | low polyreactivity
21 | QVQLVESGGGIVQAGGSLRLSCAASGSILSTYAMGWYRQAPGKERELVDSISSNAGSTYYSDSVKGRFTISRDNAKNTVYLQMNSLKPEDSAVYYCNKVYGGGTYDYWGQGTQVTVSS | low polyreactivity
22 | QVQLVESGGGIVQAGGSLRLSCAASGSIVGQYAMGWYRQPPGKERELVAAITSGGRTNYADSVTGRFTISRDNAKNTVYVQMNRLKPEDTAVYYCAARGWVWYYWGQGTQVTVSS | high polyreactivity

Row | Sequence | polyreactivity (PSR sort gate)
23 | QVQLVESGGGIVQAGGSLRLSCAASGSTFGSYAMGWYRQAPGKVRELVAAIYRAGSTYADSVKGRFTISRDNAKYTVYFQMNSLKPEDTAVYYCAKRDNALYYGYDYWRQGTQVTVSS | low polyreactivity
24 | QVQLVESGGGIVQAGGSLRLSCAASGSTFILNAMGWYRQAPGKERALVATISSSDTSTYYADSVKGRFTISRDNAKNTVYLQMNSLKPEDTAVYYCNADDYTTSYLQRVYHYGVEYYYWGQGTQVTVSS | low polyreactivity
25 | QVQLVESGGGIVQAGGSLRLSCAASGSTFRAYVMGWSRPAPGKERELVAAITYRGTSTYYADSVKGRFTISRDNAKYTVYLQMNSLKPEDTAVYYCAARRLYTRGTYDYWGLGTQVTVSS | high polyreactivity
26 | QVQLVESGGGIVQAGGSLRLSCAASGSTFVDNAMGWYRQAPGKERELVAAITTSVGSTYYADSVKGRFTISRDNAKNTVYLQMNSLKPEDTAVYYCAATVFSTYPYGYGSTFVRDDYWGQGTQVTVSS | low polyreactivity
27 | QVQLVESGGGIVQAGGSLRLSCAASGSTFVTNVMGWYRQAPGKERELVAAISYSGGNTYYEDSVKGRFTISRDNANNTVYLHMNSLKPEDTAVYYCNAYRVVHPCEYDYWGQGTQVTVSS | high polyreactivity
28 | QVQLVESGGGIVQAGGSLRLSCAASGSTFWIYAMGWYRQAPGKERELVAAISWRGGRTYYADSVKGRFTISRDNAKNTVYLQMNSLKPQDTAVYYCNAQKRDGSMGYWGQGTQVTVSS | high polyreactivity
29 | QVQLVESGGGIVQAGGSLRLSCAASGSTIDKNAMGWYRQAPGKERELVAAINNGGGTTYYADSVKGRFTISRDNAKNTVFLQMNSLKPEDTAVYYCAAVGKAYWSDYQYRYYYWGQGTQVTVSS | low polyreactivity
30 | QVQLVESGGGIVQAGGSLRLSCAASGSTLEPNAMGWYRQAPGKERELVAAITIGGSTYYADSVKGRFTISRDNAKYTVYLQMNSLKPEDTAVYYCAAKSTVQRRRHTNYDYWGQGTQVTVSS | high polyreactivity
31 | QVQLVESGGGIVQAGGSLRLSCAASGSTLHSYALGWYRQAPGKERELVAAISFRGGSTYADSVKGRFTISRDNAKNTVYVQMNSLKPEDTAVYYCATRRTRADWYIVGYDYWGQGTQVTVSS | low polyreactivity
32 | QVQLVESGGGIVQAGGSLRLSCAASGSTLTIYAMGWYRQAPGKERELVAAISRSGGRTYYADSVKGRFTISRDNAKNTVYLQMNSLKPEDTAVYYCATQPVRDRPGGSRKKYYYWGLGTQVTVSS | high polyreactivity
33 | QVQLVESGGGIVQAGGSLRLSCAASGYTFAKYAMGWYRQEPGKERELVAAISSSGGRTYYADSVKGRFTISRDIAKNTVYLQMNSLKPEDTAVYYCNAYGQRDYWGQGSQVTVSS | high polyreactivity
34 | QVQLVESGGGIVQAGGSLRLSCAPSGFIFRVYTMGWYRQAPGKERELVAAISYRGGRTYYADSVKGRFTISRDNAKNSVYLQMNILKPEDTAVYYCAAERVNREFDYWGQGTLVTVSS | high polyreactivity
35 | QVQLVESGGGIVQAGGSLRLSCDASGRIFTGNVMGWYRQAPGKERELVAAISRRGGGTYYADSVKGRFTISRDNAKNTVYLQMNSLIPEDTALYYCDAQYRSQGQPKGCVLYYYWVQGTQVTVSS | high polyreactivity
36 | QVQLVESGGGIVQAGGSLRLSFAASGSIFEGNALGWYRQEPGKEMEFVAAITKRGGSTYYADSVKGRFTISRDNAKNTVYLQMIWLKPEDTAGYYCAADRSYPRAGRYNYWGQGTQVTVSS | low polyreactivity
37 | QVQLVESGGGIVQAGGSLRLSSAASGITFGANAMGWYRQAPGKERELVADITWSGGDTYYADSVKGRFTSSRDNAKNSVYLQMNSLKPEDTAVYYCNALQPGLGSPLGEYDYWGQGTQVTVSS | low polyreactivity
38 | QVQLVESGGGIVQAGGSLRLSSAASGSTFYAYTMGWYRQAPGKERELVAAISSGGGTYYADSVKGRFTISRDNAKNTVYLQMNSLKPEDTAVYYCNADWRVGRQLSKAKIPYDYWGQGTQVTVSS | low polyreactivity
39 | QVQLVESGGGIVQAGGSLRLSWAASGRIFYAYAMRWSRQAPGKERELVASLSGGGSTDYADSVKGRFTISRDNAKNTVVLQMNSLKPEDTAVYYCAAQYYLYRSRFDYWGQGTLVTVSS | high polyreactivity
40 | QVQLVESGGGIVQAGGSLRVSCAASGRIFRRHNMGWYRQAPGKERELVAAITSSGGSTYADSVKGRFTISRDNAQNTVYLQMNSLKPEDTAVYYCATYVAYHRGYRTYDHWGQGTQVTVSS | low polyreactivity
41 | QVQLVESGGGIVQAGGSLRVSFAASGLIFYRYAMGWYRQAPGKERELVAAISSAGSTYYADSVKGRFPISRDNAKNTVYLQMNSLKPEDTAVYYCAKKKLLSVPPRGYVYVYYWGQGTQVTVSS | high polyreactivity
42 | QVQLVESGGGIVQAGRSLRLRCAASGFIFRYYTMGWYRQAPGKEREFVAAITSRGGSTYYSDSVKGRFTISRDNAKNTVYLQMNSLKPEDTAVYDCATTRWGYEYWGQGSQVTVSS | high polyreactivity
43 | QVQLVESGGGIVQAGRSLRLSCAASGSIFDFNAMGWYRQAPGKERELVAAITWGGGSTYYAYSVKGRFTNSRDNEKNTVYLQIKSLKPEDTAVYYCNAAYGRYRYDYWGQGTQVTVSS | low polyreactivity
